# Experimental data reported in PMC12416549 (2024).
# Substitutions are numbered along the chain they refer to. Names and notes keep the numbering of the source.
# T1: TNFR1 (Homo sapiens, UniProt P19438)
# T1 chain: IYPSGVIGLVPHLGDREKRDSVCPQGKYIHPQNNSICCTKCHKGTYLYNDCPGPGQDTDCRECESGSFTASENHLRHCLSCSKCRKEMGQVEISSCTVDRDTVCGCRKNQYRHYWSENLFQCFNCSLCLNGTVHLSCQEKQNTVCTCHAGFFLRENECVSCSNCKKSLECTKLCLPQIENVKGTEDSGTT
# B1: A46P (designed binder)
# chain: SMEEEVEKAAKEYEKKKKEAIEKHLEKLKAKDKEAAERFLKELEEPAKEYAKDEAKTMSEEEAKRRAKKYKEKVLLSELSEEEQKEIKEAEEKLVRTILKYVEEAAK
# B2: R65V (designed binder)
# chain: B1 chain with P46A, R65V
# B3: A63I (designed binder)
# chain: B1 chain with P46A, A63I
# B4: T57D (designed binder)
# chain: B1 chain with P46A, T57D
# B5: K56F (designed binder)
# chain: B1 chain with P46A, K56F
# B6: E54F (designed binder)
# chain: B1 chain with P46A, E54F
# B7: E49G (designed binder)
# chain: B1 chain with P46A, E49G
# B8: T97C (designed binder)
# chain: B1 chain with P46A, T97C
# B9: A9F (designed binder)
# chain: B1 chain with A9F, P46A
# B10: R66A (designed binder)
# chain: B1 chain with P46A, R66A
# B11: K17Y (designed binder)
# chain: B1 chain with K17Y, P46A
# B12: Y101K (designed binder)
# chain: B1 chain with P46A, Y101K
# B13: I98M (designed binder)
# chain: B1 chain with P46A, I98M
# B14: A35Q (designed binder)
# chain: B1 chain with A35Q, P46A
# B15: T57P (designed binder)
# chain: B1 chain with P46A, T57P
# B16: H24I (designed binder)
# chain: B1 chain with H24I, P46A
# B17: E104L (designed binder)
# chain: B1 chain with P46A, E104L
# B18: K29Y (designed binder)
# chain: B1 chain with K29Y, P46A
# B19: E44C (designed binder)
# chain: B1 chain with E44C, P46A
# B20: E92Q (designed binder)
# chain: B1 chain with P46A, E92Q
# B21: R66W (designed binder)
# chain: B1 chain with P46A, R66W
# B22: K29I (designed binder)
# chain: B1 chain with K29I, P46A
# B23: E14I (designed binder)
# chain: B1 chain with E14I, P46A
# B24: E60I (designed binder)
# chain: B1 chain with P46A, E60I
# B25: E72I (designed binder)
# chain: B1 chain with P46A, E72I
# B26: E104K (designed binder)
# chain: B1 chain with P46A, E104K
# B27: A106R (designed binder)
# chain: B1 chain with P46A, A106R
# B28: K16D (designed binder)
# chain: B1 chain with K16D, P46A
# B29: I21Q (designed binder)
# chain: B1 chain with I21Q, P46A
# B30: L75Q (designed binder)
# chain: B1 chain with P46A, L75Q
# B31: K15Q (designed binder)
# chain: B1 chain with K15Q, P46A
# B32: R96Q (designed binder)
# chain: B1 chain with P46A, R96Q
# B33: E3W (designed binder)
# chain: B1 chain with E3W, P46A
# B34: R66Y (designed binder)
# chain: B1 chain with P46A, R66Y
# B35: T57F (designed binder)
# chain: B1 chain with P46A, T57F
# B36: M2Y (designed binder)
# chain: B1 chain with M2Y, P46A
# B37: K69T (designed binder)
# chain: B1 chain with P46A, K69T
# B38: E34D (designed binder)
# chain: B1 chain with E34D, P46A
# B39: K18A (designed binder)
# chain: B1 chain with K18A, P46A
# B40: K52N (designed binder)
# chain: B1 chain with P46A, K52N
# B41: A30E (designed binder)
# chain: B1 chain with A30E, P46A
# B42: L94Q (designed binder)
# chain: B1 chain with P46A, L94Q
# B43: K52Y (designed binder)
# chain: B1 chain with P46A, K52Y
# B44: E44A (designed binder)
# chain: B1 chain with E44A, P46A
# B45: D53A (designed binder)
# chain: B1 chain with P46A, D53A
# B46: K23D (designed binder)
# chain: B1 chain with K23D, P46A
# B47: E81S (designed binder)
# chain: B1 chain with P46A, E81S
# B48: Y13G (designed binder)
# chain: B1 chain with Y13G, P46A
# B49: R65H (designed binder)
# chain: B1 chain with P46A, R65H
# B50: K68C (designed binder)
# chain: B1 chain with P46A, K68C
# B51: M2D (designed binder)
# chain: B1 chain with M2D, P46A
# B52: E42W (designed binder)
# chain: B1 chain with E42W, P46A
# B53: L79H (designed binder)
# chain: B1 chain with P46A, L79H
# B54: E78A (designed binder)
# chain: B1 chain with P46A, E78A
# B55: A55Q (designed binder)
# chain: B1 chain with P46A, A55Q
# B56: K64M (designed binder)
# chain: B1 chain with P46A, K64M
# B57: K27G (designed binder)
# chain: B1 chain with K27G, P46A
# B58: L43Y (designed binder)
# chain: B1 chain with L43Y, P46A
# B59: A67S (designed binder)
# chain: B1 chain with P46A, A67S
# Molecular target: T1, TNFR1
# Test: yeast display SC50
row,apparent Kd (screen),Binder
1,11.4 nM,B1
2,1.4 nM,B2
3,4.83 nM,B3
4,13.8 nM,B4
5,3.63 nM,B5
6,0.405 nM,B6
7,9.41 nM,B7
8,0.79 nM,B8
9,0.718 nM,B9
10,20.2 nM,B10
11,0.446 nM,B11
12,0.446 nM,B12
13,5.31 nM,B13
14,0.869 nM,B14
15,6.43 nM,B15
16,2.73 nM,B16
17,0.49 nM,B17
18,0.956 nM,B18
19,0.446 nM,B19
20,6.43 nM,B20

row,apparent Kd (screen),Binder
1,8.56 nM,B21
2,1.54 nM,B22
3,5.84 nM,B23
4,0.49 nM,B24
5,0.718 nM,B25
6,0.446 nM,B26
7,3 nM,B27
8,0.539 nM,B28
9,0.49 nM,B29
10,0.49 nM,B30
11,0.956 nM,B31
12,1.4 nM,B32
13,22.2 nM,B33
14,13.8 nM,B34
15,0.0729 nM,B35
16,0.49 nM,B36
17,2.05 nM,B37
18,0.718 nM,B38
19,0.79 nM,B39
20,0.869 nM,B40

row,apparent Kd (screen),Binder
1,0.277 nM,B41
2,1.16 nM,B42
3,2.48 nM,B43
4,0.956 nM,B44
5,1.27 nM,B45
6,0.49 nM,B46
7,0.79 nM,B47
8,2.48 nM,B48
9,1.54 nM,B49
10,3 nM,B50
11,0.446 nM,B51
12,0.49 nM,B52
13,13.8 nM,B53
14,2.48 nM,B54
15,1.54 nM,B55
16,0.653 nM,B56
17,0.79 nM,B57
18,5.84 nM,B58
19,1.54 nM,B59
